{"source": "patent US20200048693", "tested_on": "dsDNase (shrimp double strand-specific DNase)", "experiment": "cleavage_in_vitro", "conditions": "DNA strand of hybrid cleaved, RNA strand almost not; First-Strand buffer, 37 C"}
{"sequence": "CGCCATCGGAGGTTC / GAACCUCCGAUGGCG [RNA-DNA hybrid dual probe]", "values": [{"measurement": "relative cleavage activity (fraction of dsDNA activity)", "value": 0.5}]}
